One block for each binder: values may come before it.
Experiments:
[1] = biological target: T1, HER3 on the plasma membrane of SK-BR-3 and BT-474 breast cancer cells (human, UniProt P21860 20-1342); experiment: fluorescence microscopy of SK-BR-3 cells treated with 50 nM antibody for 15 min at 37 C and chased 45 min; detection with Alexa 555 anti-human IgG, co-stain LAMP-1; the cells carry HER2 and HER3 and the staining of the bispecific is not separated between the two
T1 construct: whole, on cells; also called cell surface HER3
Description: Cells were fixed, permeabilized and stained for LAMP-1. […] Scale bars=2 μm.
For fixation, cells were treated with 1.7% (w/v) paraformaldehyde for 10 minutes at 37° C. and then permeabilized with 0.05% (v/v) saponin for 10 minutes at room temperature in PBS. […] Cells were washed twice with PBS between each incubation step and were stored at 4° C. in 1% BSA/PBS.

[2] = biological target: T1, HER3 on the plasma membrane of SK-BR-3 …; experiment: fluorescence microscopy of SK-BR-3 cells pulsed with 50 nM antibody for 5 min at 37 C and chased 0, 10 or 20 min; detection with Alexa 555 anti-human IgG, co-stain EEA-1 [Continued]

binding result [1]: binds
B1: bispecific trastuzumab with anti-HER3 Ab6 scFv (TAb6) (bispecific antibody)
heavy: not shown
light: DIELTQSPSSLSASVGDRVTITCRASQDVNTAVAWYQQKPGKAPKLLIYSASFLYSGVPSRFSGSRSGTDFTLTISSLQPEDFATYYCQQHYTTPPTFGQGTKLEIKRTVAAPSVFIFPPSDEQLKSGTASVVCLLNNFYPREAKVQWKVDNALQSGNSQESVTEQDSKDSTYSLSSTLTLSKADYEKHKVYACEVTHQGLSSPVTKSFNRGEC
notes: Morrison format, expressed in CHO cells; also called bispecific anti-HER2/HER3 antibody

binding result [2]: binds
B2: tetrameric anti-HER3 (Ab6tet) (antibody)
heavy: not shown
light: DIELTQPASVSGSPGQSITISCTGTSSDVGSYNVVSWYQQHPGKAPKLIIYEVSQRPSGVSNRFSGSKSGNTASLTISGLQTEDEADYYCCSYAGSSIFVIFGGGTKLEIKRTVAAPSVFIFPPSDEQLKSGTASVVCLLNNFYPREAKVQWKVDNALQSGNSQESVTEQDSKDSTYSLSSTLTLSKADYEKHKVYACEVTHQGLSSPVTKSFNRGEC
notes: Residues 1-19 are the leader; also called tetravalent anti-HER3 antibody; multivalent anti-HER3 antibody

Source: patent US20160229920A1 (University of Texas, published 2016)
